Measured values published in paper PMC12102759 (2025).

B1: CBL peptide 538-553 (E3 ubiquitin-protein ligase CBL), 16-mer library wild type / YES SH3 (YES1 SH3 domain, residues 90-152) (parent complex)
chain 1: TLRDLPPPPPPDRPYS
chain 2: not shown

Variants of: B1
Test: proteomic peptide phage display deep mutational scan (ProP-PD DMS): M13 P8 16-mer library selected against immobilised GST-tagged bait for four days (rounds), NGS of the eluted pools per day and pseudo-replica; bait immobilised on MaxiSorp plates (10 µg), library pre-cleared on GST, 2 h binding at 4 °C, five washes; one round per day, days 1-4; value from days 2 and 3

Variant	screen value
chain 1 P14V	0.0011 average fractional NGS count over selection days 2 and 3 (reads of this peptide / all reads for the bait, averaged over …
chain 1 P14G	0.000593 average fractional NGS count over selection days 2 and 3 (reads of this peptide / all reads for the bait, averaged over …
chain 1 P14W	0.00023 average fractional NGS count over selection days 2 and 3 (reads of this peptide / all reads for the bait, averaged over …
chain 1 P14A	0.000568 average fractional NGS count over selection days 2 and 3 (reads of this peptide / all reads for the bait, averaged over …
chain 1 P14H	0.00144 average fractional NGS count over selection days 2 and 3 (reads of this peptide / all reads for the bait, averaged over …
chain 1 P14M	0.00532 average fractional NGS count over selection days 2 and 3 (reads of this peptide / all reads for the bait, averaged over …
chain 1 P14L	0.00213 average fractional NGS count over selection days 2 and 3 (reads of this peptide / all reads for the bait, averaged over …
chain 1 P14E	0.000212 average fractional NGS count over selection days 2 and 3 (reads of this peptide / all reads for the bait, averaged over …
chain 1 P14Y	0.00118 average fractional NGS count over selection days 2 and 3 (reads of this peptide / all reads for the bait, averaged over …
chain 1 P14T	0.0012 average fractional NGS count over selection days 2 and 3 (reads of this peptide / all reads for the bait, averaged over …
chain 1 P9Q	0.000144 average fractional NGS count over selection days 2 and 3 (reads of this peptide / all reads for the bait, averaged over …
chain 1 P9T	0.000558 average fractional NGS count over selection days 2 and 3 (reads of this peptide / all reads for the bait, averaged over …
chain 1 P9V	0.000276 average fractional NGS count over selection days 2 and 3 (reads of this peptide / all reads for the bait, averaged over …
chain 1 P9S	0.000162 average fractional NGS count over selection days 2 and 3 (reads of this peptide / all reads for the bait, averaged over …
chain 1 P9N	0.000239 average fractional NGS count over selection days 2 and 3 (reads of this peptide / all reads for the bait, averaged over …
chain 1 P9R	8.13e-05 average fractional NGS count over selection days 2 and 3 (reads of this peptide / all reads for the bait, averaged over …
chain 1 P9L	0.000514 average fractional NGS count over selection days 2 and 3 (reads of this peptide / all reads for the bait, averaged over …
chain 1 P9A	0.000623 average fractional NGS count over selection days 2 and 3 (reads of this peptide / all reads for the bait, averaged over …
chain 1 R3K	0.000536 average fractional NGS count over selection days 2 and 3 (reads of this peptide / all reads for the bait, averaged over …
chain 1 R3W	0.00019 average fractional NGS count over selection days 2 and 3 (reads of this peptide / all reads for the bait, averaged over …
chain 1 R3H	0.000385 average fractional NGS count over selection days 2 and 3 (reads of this peptide / all reads for the bait, averaged over …
chain 1 R3M	0.000204 average fractional NGS count over selection days 2 and 3 (reads of this peptide / all reads for the bait, averaged over …
chain 1 R3S	0.000276 average fractional NGS count over selection days 2 and 3 (reads of this peptide / all reads for the bait, averaged over …
chain 1 R3P	8.03e-05 average fractional NGS count over selection days 2 and 3 (reads of this peptide / all reads for the bait, averaged over …
chain 1 R3L	7.89e-05 average fractional NGS count over selection days 2 and 3 (reads of this peptide / all reads for the bait, averaged over …

Variant	screen value
chain 1 R3E	0.000121 average fractional NGS count over selection days 2 and 3 (reads of this peptide / all reads for the bait, averaged over …
chain 1 R3V	0.000502 average fractional NGS count over selection days 2 and 3 (reads of this peptide / all reads for the bait, averaged over …
chain 1 R3A	0.00047 average fractional NGS count over selection days 2 and 3 (reads of this peptide / all reads for the bait, averaged over …
chain 1 R3N	0.000239 average fractional NGS count over selection days 2 and 3 (reads of this peptide / all reads for the bait, averaged over …
chain 1 R3G	0.00132 average fractional NGS count over selection days 2 and 3 (reads of this peptide / all reads for the bait, averaged over …
chain 1 R3D	8.49e-05 average fractional NGS count over selection days 2 and 3 (reads of this peptide / all reads for the bait, averaged over …
chain 1 S16I	0.00716 average fractional NGS count over selection days 2 and 3 (reads of this peptide / all reads for the bait, averaged over …
chain 1 S16P	0.00387 average fractional NGS count over selection days 2 and 3 (reads of this peptide / all reads for the bait, averaged over …
chain 1 S16V	0.00134 average fractional NGS count over selection days 2 and 3 (reads of this peptide / all reads for the bait, averaged over …
chain 1 S16R	0.000301 average fractional NGS count over selection days 2 and 3 (reads of this peptide / all reads for the bait, averaged over …
chain 1 S16K	0.00025 average fractional NGS count over selection days 2 and 3 (reads of this peptide / all reads for the bait, averaged over …
chain 1 S16E	0.000858 average fractional NGS count over selection days 2 and 3 (reads of this peptide / all reads for the bait, averaged over …
chain 1 S16H	0.00402 average fractional NGS count over selection days 2 and 3 (reads of this peptide / all reads for the bait, averaged over …
chain 1 S16Y	0.000405 average fractional NGS count over selection days 2 and 3 (reads of this peptide / all reads for the bait, averaged over …
chain 1 S16D	0.00258 average fractional NGS count over selection days 2 and 3 (reads of this peptide / all reads for the bait, averaged over …
chain 1 S16G	0.000561 average fractional NGS count over selection days 2 and 3 (reads of this peptide / all reads for the bait, averaged over …
chain 1 S16M	0.00227 average fractional NGS count over selection days 2 and 3 (reads of this peptide / all reads for the bait, averaged over …
chain 1 S16Q	9.78e-05 average fractional NGS count over selection days 2 and 3 (reads of this peptide / all reads for the bait, averaged over …
chain 1 S16F	0.00399 average fractional NGS count over selection days 2 and 3 (reads of this peptide / all reads for the bait, averaged over …
chain 1 R13I	0.000728 average fractional NGS count over selection days 2 and 3 (reads of this peptide / all reads for the bait, averaged over …
chain 1 R13W	0.00314 average fractional NGS count over selection days 2 and 3 (reads of this peptide / all reads for the bait, averaged over …
chain 1 R13Q	0.000164 average fractional NGS count over selection days 2 and 3 (reads of this peptide / all reads for the bait, averaged over …
chain 1 R13V	0.000492 average fractional NGS count over selection days 2 and 3 (reads of this peptide / all reads for the bait, averaged over …
chain 1 R13F	0.000441 average fractional NGS count over selection days 2 and 3 (reads of this peptide / all reads for the bait, averaged over …
chain 1 R13Y	0.000779 average fractional NGS count over selection days 2 and 3 (reads of this peptide / all reads for the bait, averaged over …

Variant	screen value
chain 1 R13G	3.78e-05 average fractional NGS count over selection days 2 and 3 (reads of this peptide / all reads for the bait, averaged over …
chain 1 R13M	0.000309 average fractional NGS count over selection days 2 and 3 (reads of this peptide / all reads for the bait, averaged over …
chain 1 R13A	0.00128 average fractional NGS count over selection days 2 and 3 (reads of this peptide / all reads for the bait, averaged over …
chain 1 R13N	0.000641 average fractional NGS count over selection days 2 and 3 (reads of this peptide / all reads for the bait, averaged over …
chain 1 R13H	6.28e-05 average fractional NGS count over selection days 2 and 3 (reads of this peptide / all reads for the bait, averaged over …
chain 1 R13E	0.000127 average fractional NGS count over selection days 2 and 3 (reads of this peptide / all reads for the bait, averaged over …
chain 1 P6H	0.000126 average fractional NGS count over selection days 2 and 3 (reads of this peptide / all reads for the bait, averaged over …
chain 1 P6S	0.000101 average fractional NGS count over selection days 2 and 3 (reads of this peptide / all reads for the bait, averaged over …
chain 1 P7Q	0.000151 average fractional NGS count over selection days 2 and 3 (reads of this peptide / all reads for the bait, averaged over …
chain 1 P7T	0.000231 average fractional NGS count over selection days 2 and 3 (reads of this peptide / all reads for the bait, averaged over …
chain 1 P7N	0.000153 average fractional NGS count over selection days 2 and 3 (reads of this peptide / all reads for the bait, averaged over …
chain 1 P7F	0.000149 average fractional NGS count over selection days 2 and 3 (reads of this peptide / all reads for the bait, averaged over …
chain 1 P7S	0.00158 average fractional NGS count over selection days 2 and 3 (reads of this peptide / all reads for the bait, averaged over …
chain 1 P7H	7.35e-05 average fractional NGS count over selection days 2 and 3 (reads of this peptide / all reads for the bait, averaged over …
chain 1 P7L	0.000549 average fractional NGS count over selection days 2 and 3 (reads of this peptide / all reads for the bait, averaged over …
chain 1 P7I	0.00214 average fractional NGS count over selection days 2 and 3 (reads of this peptide / all reads for the bait, averaged over …
chain 1 P7A	0.00162 average fractional NGS count over selection days 2 and 3 (reads of this peptide / all reads for the bait, averaged over …
chain 1 P7G	0.000231 average fractional NGS count over selection days 2 and 3 (reads of this peptide / all reads for the bait, averaged over …
chain 1 P7E	0.00022 average fractional NGS count over selection days 2 and 3 (reads of this peptide / all reads for the bait, averaged over …
chain 1 P7K	0.000378 average fractional NGS count over selection days 2 and 3 (reads of this peptide / all reads for the bait, averaged over …
chain 1 P7V	0.00339 average fractional NGS count over selection days 2 and 3 (reads of this peptide / all reads for the bait, averaged over …
chain 1 L2N	0.00027 average fractional NGS count over selection days 2 and 3 (reads of this peptide / all reads for the bait, averaged over …
chain 1 L2E	0.00558 average fractional NGS count over selection days 2 and 3 (reads of this peptide / all reads for the bait, averaged over …
chain 1 L2V	0.00022 average fractional NGS count over selection days 2 and 3 (reads of this peptide / all reads for the bait, averaged over …
chain 1 L2T	0.00177 average fractional NGS count over selection days 2 and 3 (reads of this peptide / all reads for the bait, averaged over …
